Four molecules from patent US20190218277A1 (Chugai, published 2019) can be followed below.

Assay [1] addresses T1, human FcγRIIb (human, UniProt P31994 43-217).
T1 construct: also called human FcγR2b
T1 sequence: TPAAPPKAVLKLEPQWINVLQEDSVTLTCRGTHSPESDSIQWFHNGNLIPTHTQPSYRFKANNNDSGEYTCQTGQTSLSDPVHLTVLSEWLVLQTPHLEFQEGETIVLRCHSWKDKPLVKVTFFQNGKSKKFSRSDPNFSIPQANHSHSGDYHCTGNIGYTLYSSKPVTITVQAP
Nature of the assay: SPR (Biacore T200, pH 7.4, 25 °C): His-tagged FcγR captured by anti-His antibody; antibody injected at 100 nM alone (Ab alone) or as 1:1 complex with trimeric CD154 (CD154 IC); binding level / capture level [D]. In general terms: Surface plasmon resonance follows binding to a sensor surface in real time, without labels.

In assay [2] the target is T2, mouse FcγRI (mouse, UniProt P26151 25-297).
T2 construct: also called mFcγRI; mouse FcγR1
T2 sequence: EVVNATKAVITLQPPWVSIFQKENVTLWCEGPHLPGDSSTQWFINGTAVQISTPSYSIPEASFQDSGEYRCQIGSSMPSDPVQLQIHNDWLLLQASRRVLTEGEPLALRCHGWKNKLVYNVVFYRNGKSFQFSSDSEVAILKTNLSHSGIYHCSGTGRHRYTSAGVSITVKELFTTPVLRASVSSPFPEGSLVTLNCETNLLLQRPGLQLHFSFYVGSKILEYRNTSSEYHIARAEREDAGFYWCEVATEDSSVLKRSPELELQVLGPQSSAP
Nature of the assay: SPR (Biacore T200, pH 7.4, 25 °C): His-tagged FcγR captured by anti-His antibody; antibody injected at 100 nM alone (Ab alone) or as 1:1 complex with trimeric CD154 (CD154 IC); binding level / capture level [A].

Assay [3] addresses mouse C1q (from 10% mouse plasma) (mouse, UniProt P98086 23-245; P14106 26-253; Q02105 30-246). Nature of the assay: ELISA: antibody coated on the plate at the concentration shown, 10% mouse plasma added, detected with biotinylated anti-mouse C1q and streptavidin-HRP, OD 405 nm. On the technique in general: An ELISA detects its analyte on a solid surface through an enzyme-linked reagent.

The target in assay [4] is T3, mouse FcγRIIb (mouse, UniProt P08101 30-210).
T3 construct: also called mFcγRIIb; mouse FcγR2b
T3 sequence: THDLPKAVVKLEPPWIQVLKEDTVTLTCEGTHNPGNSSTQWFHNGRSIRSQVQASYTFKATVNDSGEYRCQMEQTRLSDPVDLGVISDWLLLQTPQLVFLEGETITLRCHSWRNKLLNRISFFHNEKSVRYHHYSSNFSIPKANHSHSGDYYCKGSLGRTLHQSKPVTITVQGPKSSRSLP
Nature of the assay: SPR (Biacore T200, pH 7.4, 25 °C): His-tagged FcγR captured by anti-His antibody; antibody injected at 100 nM alone (Ab alone) or as 1:1 complex with trimeric CD154 (CD154 IC); binding level / capture level [B].

Assay [5] addresses T4, human FcγRIIa (167R) (human, UniProt P12318 36-217).
T4 construct: also called human FcγR2a allelic variant 167R
T4 chain: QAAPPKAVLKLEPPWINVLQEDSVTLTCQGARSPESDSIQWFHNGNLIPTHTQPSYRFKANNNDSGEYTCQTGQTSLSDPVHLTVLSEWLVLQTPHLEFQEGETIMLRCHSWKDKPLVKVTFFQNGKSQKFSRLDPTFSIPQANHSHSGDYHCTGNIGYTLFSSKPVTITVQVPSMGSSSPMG
Nature of the assay: SPR (Biacore T200, pH 7.4, 25 °C): His-tagged FcγR captured by anti-His antibody; antibody injected at 100 nM alone (Ab alone) or as 1:1 complex with trimeric CD154 (CD154 IC); binding level / capture level [C].

The target in assay [6] is T5, mouse FcγRIII (mouse, UniProt P08508 31-215).
T5 construct: also called mFcγRIII; mouse FcγR3
T5 chain: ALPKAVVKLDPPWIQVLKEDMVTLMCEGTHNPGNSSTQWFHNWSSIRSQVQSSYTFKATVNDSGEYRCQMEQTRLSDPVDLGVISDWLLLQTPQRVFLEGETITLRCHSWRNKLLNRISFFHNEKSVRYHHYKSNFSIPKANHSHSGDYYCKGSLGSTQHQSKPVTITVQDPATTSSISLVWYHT
The description is as above.

Assay [7] deals with T6, human FcγRIIIb (NA1) (human, UniProt O75015 17-200).
T6 construct: also called human FcγR3b allelic variant NA1
T6 chain: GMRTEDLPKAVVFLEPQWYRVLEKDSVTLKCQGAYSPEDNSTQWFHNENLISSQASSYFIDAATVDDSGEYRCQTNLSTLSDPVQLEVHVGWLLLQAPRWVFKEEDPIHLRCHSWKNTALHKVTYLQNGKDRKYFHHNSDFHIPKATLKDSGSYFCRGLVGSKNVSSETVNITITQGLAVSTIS
The assay is described as follows: SPR (Biacore T200, pH 7.4, 25 °C): His-tagged FcγR captured by anti-His antibody; antibody injected at 100 nM alone (Ab alone) or as 1:1 complex with trimeric CD154 (CD154 IC); binding level / capture level [G].

The target in assay [8] is T7, human FcγRIIa (167H) (human, UniProt P12318 36-217).
T7 construct: also called human FcγR2a allelic variant 167H
T7 sequence: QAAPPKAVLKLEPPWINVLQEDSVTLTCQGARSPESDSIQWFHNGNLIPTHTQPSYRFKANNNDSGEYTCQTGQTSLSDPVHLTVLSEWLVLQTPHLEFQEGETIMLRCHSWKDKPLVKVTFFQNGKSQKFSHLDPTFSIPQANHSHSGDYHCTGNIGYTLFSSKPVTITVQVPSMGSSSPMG
The assay is described as follows: SPR (Biacore T200, pH 7.4, 25 °C): His-tagged FcγR captured by anti-His antibody; antibody injected at 100 nM alone (Ab alone) or as 1:1 complex with trimeric CD154 (CD154 IC); binding level / capture level [B].

Assay [9] deals with T8, human FcγRIIIa (158V) (human, UniProt P08637 17-208).
T8 construct: also called human FcγR3a allelic variant 158V
Nature of the assay: SPR (Biacore T200, pH 7.4, 25 °C): His-tagged FcγR captured by anti-His antibody; antibody injected at 100 nM alone (Ab alone) or as 1:1 complex with trimeric CD154 (CD154 IC); binding level / capture level [F].

mouse C1q (from 10% mouse plasma), sequence (P98086 23-245 limits assumed, chain 1 of 3): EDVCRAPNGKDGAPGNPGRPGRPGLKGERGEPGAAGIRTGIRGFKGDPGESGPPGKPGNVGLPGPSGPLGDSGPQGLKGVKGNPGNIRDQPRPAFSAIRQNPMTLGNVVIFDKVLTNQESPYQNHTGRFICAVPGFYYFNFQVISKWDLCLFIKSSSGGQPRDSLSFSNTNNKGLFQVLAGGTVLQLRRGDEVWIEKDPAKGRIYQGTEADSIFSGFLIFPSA
mouse C1q (from 10% mouse plasma), sequence (P14106 26-253 limits assumed, chain 2 of 3): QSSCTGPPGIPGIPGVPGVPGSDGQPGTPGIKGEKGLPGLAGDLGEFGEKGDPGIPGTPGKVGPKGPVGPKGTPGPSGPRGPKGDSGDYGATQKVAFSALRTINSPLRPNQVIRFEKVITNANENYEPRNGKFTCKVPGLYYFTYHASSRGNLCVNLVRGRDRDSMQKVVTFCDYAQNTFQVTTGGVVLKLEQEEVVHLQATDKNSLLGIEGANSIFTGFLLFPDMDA
mouse C1q (from 10% mouse plasma), sequence (Q02105 30-246 limits assumed, chain 3 of 3): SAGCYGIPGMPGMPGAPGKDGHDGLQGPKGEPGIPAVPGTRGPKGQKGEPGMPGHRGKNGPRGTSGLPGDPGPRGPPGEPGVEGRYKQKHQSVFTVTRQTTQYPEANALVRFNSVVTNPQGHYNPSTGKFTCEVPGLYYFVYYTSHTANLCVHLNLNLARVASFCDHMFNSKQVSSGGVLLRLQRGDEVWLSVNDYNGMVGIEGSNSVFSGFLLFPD
T8 sequence (P08637 other isoform, or with tags, fused parts or gaps limits assumed): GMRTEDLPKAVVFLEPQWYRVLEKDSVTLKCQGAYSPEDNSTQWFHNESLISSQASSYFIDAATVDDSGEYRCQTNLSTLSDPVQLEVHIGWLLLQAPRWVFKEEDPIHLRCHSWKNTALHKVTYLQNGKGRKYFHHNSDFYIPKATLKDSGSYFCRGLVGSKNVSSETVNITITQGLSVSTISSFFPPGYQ

B1: Anti-CD154 antibody (SLAPH0336a/SLAPL0336a) with Fc variant LALA+ACT3 (SG1044) (antibody)
heavy: EVQLVESGGGSVKPGGSLKLSCAASGFTFSDHYMYWVRQTPEKRLEWVAIISGGGSYTSYPDSMKGRFTISRDNAKNILHLQMSSLKSEDTAMYYCTRESNGKPGFAYWGQGTLVTVSAASTKGPSVFPLAPSSKSTSGGTAALGCLVKDYFPEPVTVSWNSGALTSGVHTFPAVLQSSGLYSLSSVVTVPSSSLGTQTYICNVNHKPSNTKVDKRVEPKSCDKTHTCPPCPAPEAAGGPSVFLFPPKPKDTLMISRTPEVTCVVVDVSHEDPEVKFNWYVDGVEVHNAKTKPREEQYNSTYRVVSVLTVLHQDWLNGKEYKCKVSNKALPAPIEKTISKAKGQPREPQVYTLPPSREEMTKNQVSLTCLVKGFYPSDIAVEWESNGQPENNYKTTPPVLDSDGSFFLYSKLTVDKSRWQQGNVFSCSVLHEALHAHTTRKELSLSP
light: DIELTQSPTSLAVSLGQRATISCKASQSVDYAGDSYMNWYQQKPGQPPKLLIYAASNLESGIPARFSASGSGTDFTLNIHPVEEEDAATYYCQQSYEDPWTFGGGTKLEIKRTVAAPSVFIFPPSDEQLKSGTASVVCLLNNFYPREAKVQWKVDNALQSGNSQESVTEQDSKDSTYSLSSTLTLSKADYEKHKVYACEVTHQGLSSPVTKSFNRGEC
Turning to B1, the binding result in [1] is “no binding (tested: 100 nM)”; in assay [2], “no binding (tested: 100 nM)”; in [3], “binds”; in assay [4], “no binding (tested: 100 nM)”; in assay [5] it was “no binding (tested: 100 nM)”; in [6] it was “no binding (tested: 100 nM)”. Also, the binding result in [7] and in assay [8] was “no binding (tested: 100 nM)” each time.

B2: Anti-CD154 antibody (SLAPH0336a/SLAPL0336a) with Fc variant LALA+ACT5 (SG1045) (antibody)
heavy: EVQLVESGGGSVKPGGSLKLSCAASGFTFSDHYMYWVRQTPEKRLEWVAIISGGGSYTSYPDSMKGRFTISRDNAKNILHLQMSSLKSEDTAMYYCTRESNGKPGFAYWGQGTLVTVSAASTKGPSVFPLAPSSKSTSGGTAALGCLVKDYFPEPVTVSWNSGALTSGVHTFPAVLQSSGLYSLSSVVTVPSSSLGTQTYICNVNHKPSNTKVDKRVEPKSCDKTHTCPPCPAPEAAGGPSVFLFPPKPKDTLMISRTPEVTCVVVDVSHEDPEVKFNWYVDGVEVHNAKTKPREEQYNSTYRVVSVLTVLHQDWLNGKEYKCKVSNKALPAPIEKTISKAKGQPREPQVYTLPPSREEMTKNQVSLTCLVKGFYPSDIAVEWESNGQPENNYKTTPPVLDSDGSFFLYSKLTVDKSRWQQGNVFSCSVLHEALHAHYTRKELSLSP
light: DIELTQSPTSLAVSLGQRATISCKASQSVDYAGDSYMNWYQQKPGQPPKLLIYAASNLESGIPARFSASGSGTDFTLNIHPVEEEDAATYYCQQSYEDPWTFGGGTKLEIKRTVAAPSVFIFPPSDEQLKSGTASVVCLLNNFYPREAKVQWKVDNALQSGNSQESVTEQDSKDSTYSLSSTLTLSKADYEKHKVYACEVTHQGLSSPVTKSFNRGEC
As for B2, the binding result in assay [1] is given as “no binding (tested: 100 nM)”; in assay [2], “no binding (tested: 100 nM)”; in [3] it was “binds”; in assay [4], “no binding (tested: 100 nM)”; in assay [9], “binds”; in assay [5], “no binding (tested: 100 nM)”. Besides, the binding result in assay [6], in assay [7] and in assay [8] was “no binding (tested: 100 nM)” in each case.

B3: Anti-CD154 antibody (SLAPH0336a/SLAPL0336a) with Fc variant LALA+ACT5+KAES (SG1106) (antibody)
heavy: EVQLVESGGGSVKPGGSLKLSCAASGFTFSDHYMYWVRQTPEKRLEWVAIISGGGSYTSYPDSMKGRFTISRDNAKNILHLQMSSLKSEDTAMYYCTRESNGKPGFAYWGQGTLVTVSAASTKGPSVFPLAPSSKSTSGGTAALGCLVKDYFPEPVTVSWNSGALTSGVHTFPAVLQSSGLYSLSSVVTVPSSSLGTQTYICNVNHKPSNTKVDKRVEPKSCDKTHTCPPCPAPEAAGGPSVFLFPPKPKDTLMISRTPEVTCVVVDVSHEDPEVKFNWYVDGVEVHNAKTKPREEQYNSTYRVVSVLTVLHQDWLNGKEYKCKVSNAALPAPISKTISKAKGQPREPQVYTLPPSREEMTKNQVSLTCLVKGFYPSDIAVEWESNGQPENNYKTTPPVLDSDGSFFLYSKLTVDKSRWQQGNVFSCSVLHEALHAHYTRKELSLSP
light: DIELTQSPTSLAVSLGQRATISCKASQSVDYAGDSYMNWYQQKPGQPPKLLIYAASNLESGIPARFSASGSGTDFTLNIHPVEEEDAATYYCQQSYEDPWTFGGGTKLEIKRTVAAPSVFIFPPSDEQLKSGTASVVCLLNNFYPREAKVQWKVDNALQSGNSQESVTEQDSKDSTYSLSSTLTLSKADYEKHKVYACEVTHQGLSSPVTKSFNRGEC
notes: also called LALA+KAES+ACT5
In the case of B3, the binding result in assay [1] was “no binding (tested: 100 nM)”; in assay [2], “no binding (tested: 100 nM)”; in assay [3], “binds”; in [4] it was “no binding (tested: 100 nM)”; in assay [9], “binds”; in assay [5], “no binding (tested: 100 nM)”. Besides, the binding result in assay [6], in assay [7] and in assay [8] was “no binding (tested: 100 nM)” in each case.

B4: Anti-CD154 antibody (SLAPH0336a/SLAPL0336a) with Fc variant LALA+ACT3+KAES (SG1105) (antibody)
heavy: EVQLVESGGGSVKPGGSLKLSCAASGFTFSDHYMYWVRQTPEKRLEWVAIISGGGSYTSYPDSMKGRFTISRDNAKNILHLQMSSLKSEDTAMYYCTRESNGKPGFAYWGQGTLVTVSAASTKGPSVFPLAPSSKSTSGGTAALGCLVKDYFPEPVTVSWNSGALTSGVHTFPAVLQSSGLYSLSSVVTVPSSSLGTQTYICNVNHKPSNTKVDKRVEPKSCDKTHTCPPCPAPEAAGGPSVFLFPPKPKDTLMISRTPEVTCVVVDVSHEDPEVKFNWYVDGVEVHNAKTKPREEQYNSTYRVVSVLTVLHQDWLNGKEYKCKVSNAALPAPISKTISKAKGQPREPQVYTLPPSREEMTKNQVSLTCLVKGFYPSDIAVEWESNGQPENNYKTTPPVLDSDGSFFLYSKLTVDKSRWQQGNVFSCSVLHEALHAHTTRKELSLSP
light: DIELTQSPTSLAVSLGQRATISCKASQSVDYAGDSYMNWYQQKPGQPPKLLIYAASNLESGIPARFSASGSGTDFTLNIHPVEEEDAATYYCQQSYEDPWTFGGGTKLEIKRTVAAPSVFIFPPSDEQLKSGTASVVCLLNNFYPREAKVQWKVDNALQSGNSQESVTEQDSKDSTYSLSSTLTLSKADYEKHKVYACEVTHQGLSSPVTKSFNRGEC
notes: also called LALA+KAES+ACT3
Consider B4, for which the binding result is recorded as “no binding (tested: 100 nM)” in assay [1]; “no binding (tested: 100 nM)” in assay [2]; “binds” in [3]; “no binding (tested: 100 nM)” in [4]; “binds” in [9]; “no binding (tested: 100 nM)” in assay [5]. For the same molecule, the binding result in assay [6], in assay [7] and in assay [8] was “no binding (tested: 100 nM)” each time.
